Laboratory results as given in paper PMC10540216, “Activity Guided Azide-methyllysine Photo-trapping for Substrate Profiling of Lysine Demethylases” (Journal of the American Chemical Society, 2023).

B1: PR40A_HUMAN (protein, UniProt O75400 1-957, looked up)
Pre-mRNA-processing factor 40 …: MRPGTGAERGGLMVSEMESHPPSQGPGDGERRLSGSSLCSGSWVSADGFLRRRPSMGHPGMHYAPMGMHPMGQRANMPPVPHGMMPQMMPPMGGPPMGQMPGMMSSVMPGMMMSHMSQASMQPALPPGVNSMDVAAGTASGAKSMWTEHKSPDGRTYYYNTETKQSTWEKPDDLKTPAEQLLSKCPWKEYKSDSGKPYYYNSQTKESRWAKPKELEDLEGYQNTIVAGSLITKSNLHAMIKAEESSKQEECTTTSTAPVPTTEIPTTMSTMAAAEAAAAVVAAAAAAAAAAAAANANASTSASNTVSGTVPVVPEPEVTSIVATVVDNENTVTISTEEQAQLTSTPAIQDQSVEVSSNTGEETSKQETVADFTPKKEEEESQPAKKTYTWNTKEEAKQAFKELLKEKRVPSNASWEQAMKMIINDPRYSALAKLSEKKQAFNAYKVQTEKEEKEEARSKYKEAKESFQRFLENHEKMTSTTRYKKAEQMFGEMEVWNAISERDRLEIYEDVLFFLSKKEKEQAKQLRKRNWEALKNILDNMANVTYSTTWSEAQQYLMDNPTFAEDEELQNMDKEDALICFEEHIRALEKEEEEEKQKSLLRERRRQRKNRESFQIFLDELHEHGQLHSMSSWMELYPTISSDIRFTNMLGQPGSTALDLFKFYVEDLKARYHDEKKIIKDILKDKGFVVEVNTTFEDFVAIISSTKRSTTLDAGNIKLAFNSLLEKAEAREREREKEEARKMKRKESAFKSMLKQAAPPIELDAVWEDIRERFVKEPAFEDITLESERKRIFKDFMHVLEHECQHHHSKNKKHSKKSKKHHRKRSRSRSGSDSDDDDSHSKKKRQRSESRSASEHSSSAESERSYKKSKKHKKKSKKRRHKSDSPESDAEREKDKKEKDRESEKDRTRQRSESKHKSPKKKTGKDSGNWDTSGSELSEGELEKRRRTLLEQLDDDQ
B2: SRRT_HUMAN (protein, UniProt Q9BXP5 2-876, looked up)
Serrate RNA effector molecule …: GDSDDEYDRRRRDKFRRERSDYDRSRERDERRRGDDWNDREWDRGRERRSRGEYRDYDRNRRERFSPPRHELSPPQKRMRRDWDEHSSDPYHSGYEMPYAGGGGGPTYGPPQPWGHPDVHIMQHHVLPIQARLGSIAEIDLGVPPPVMKTFKEFLLSLDDSVDETEAVKRYNDYKLDFRRQQMQDFFLAHKDEEWFRSKYHPDEVGKRRQEARGALQNRLRVFLSLMETGWFDNLLLDIDKADAIVKMLDAAVIKMEGGTENDLRILEQEEEEEQAGKPGEPSKKEEGRAGAGLGDGERKTNDKDEKKEDGKQAENDSSNDDKTKKSEGDGDKEEKKEDSEKEAKKSSKKRNRKHSGDDSFDEGSVSESESESESGQAEEEKEEAEEALKEKEKPKEEEWEKPKDAAGLECKPRPLHKTCSLFMRNIAPNISRAEIISLCKRYPGFMRVALSEPQPERRFFRRGWVTFDRSVNIKEICWNLQNIRLRECELSPGVNRDLTRRVRNINGITQHKQIVRNDIKLAAKLIHTLDDRTQLWASEPGTPPLPTSLPSQNPILKNITDYLIEEVSAEEEELLGSSGGAPPEEPPKEGNPAEINVERDEKLIKVLDKLLLYLRIVHSLDYYNTCEYPNEDEMPNRCGIIHVRGPMPPNRISHGEVLEWQKTFEEKLTPLLSVRESLSEEEAQKMGRKDPEQEVEKFVTSNTQELGKDKWLCPLSGKKFKGPEFVRKHIFNKHAEKIEEVKKEVAFFNNFLTDAKRPALPEIKPAQPPGPAQILPPGLTPGLPYPHQTPQGLMPYGQPRPPILGYGAGAVRPAVPTGGPPYPHAPYGAGRGNYDAFRGQGGYPGKPRNRMVRGDPRAIVEYRDLDAPDDVDFF
B3: ROCK1_HUMAN (protein, UniProt Q13464 2-1354, looked up)
Rho-associated protein kinase …: STGDSFETRFEKMDNLLRDPKSEVNSDCLLDGLDALVYDLDFPALRKNKNIDNFLSRYKDTINKIRDLRMKAEDYEVVKVIGRGAFGEVQLVRHKSTRKVYAMKLLSKFEMIKRSDSAFFWEERDIMAFANSPWVVQLFYAFQDDRYLYMVMEYMPGGDLVNLMSNYDVPEKWARFYTAEVVLALDAIHSMGFIHRDVKPDNMLLDKSGHLKLADFGTCMKMNKEGMVRCDTAVGTPDYISPEVLKSQGGDGYYGRECDWWSVGVFLYEMLVGDTPFYADSLVGTYSKIMNHKNSLTFPDDNDISKEAKNLICAFLTDREVRLGRNGVEEIKRHLFFKNDQWAWETLRDTVAPVVPDLSSDIDTSNFDDLEEDKGEEETFPIPKAFVGNQLPFVGFTYYSNRRYLSSANPNDNRTSSNADKSLQESLQKTIYKLEEQLHNEMQLKDEMEQKCRTSNIKLDKIMKELDEEGNQRRNLESTVSQIEKEKMLLQHRINEYQRKAEQENEKRRNVENEVSTLKDQLEDLKKVSQNSQLANEKLSQLQKQLEEANDLLRTESDTAVRLRKSHTEMSKSISQLESLNRELQERNRILENSKSQTDKDYYQLQAILEAERRDRGHDSEMIGDLQARITSLQEEVKHLKHNLEKVEGERKEAQDMLNHSEKEKNNLEIDLNYKLKSLQQRLEQEVNEHKVTKARLTDKHQSIEEAKSVAMCEMEKKLKEEREAREKAENRVVQIEKQCSMLDVDLKQSQQKLEHLTGNKERMEDEVKNLTLQLEQESNKRLLLQNELKTQAFEADNLKGLEKQMKQEINTLLEAKRLLEFELAQLTKQYRGNEGQMRELQDQLEAEQYFSTLYKTQVKELKEEIEEKNRENLKKIQELQNEKETLATQLDLAETKAESEQLARGLLEEQYFELTQESKKAASRNRQEITDKDHTVSRLEEANSMLTKDIEILRRENEELTEKMKKAEEEYKLEKEEEISNLKAAFEKNINTERTLKTQAVNKLAEIMNRKDFKIDRKKANTQDLRKKEKENRKLQLELNQEREKFNQMVVKHQKELNDMQAQLVEECAHRNELQMQLASKESDIEQLRAKLLDLSDSTSVASFPSADETDGNLPESRIEGWLSVPNRGNIKRYGWKKQYVVVSSKKILFYNDEQDKEQSNPSMVLDIDKLFHVRPVTQGDVYRAETEEIPKIFQILYANEGECRKDVEMEPVQQAEKTNFQNHKGHEFIPTLYHFPANCDACAKPLWHVFKPPPALECRRCHVKCHRDHLDKKEDLICPCKVSYDVTSARDMLLLACSQDEQKKWVTHLVKKIPKNPPSGFVRASPRTLSTRSTANQSFRKVVKNTSGKTS
B4: NU155_HUMAN (protein, UniProt O75694 2-1391, looked up)
Nuclear pore complex protein …: PSSLLGAAMPASTSAAALQEALENAGRLIDRQLQEDRMYPDLSELLMVSAPNNPTVSGMSDMDYPLQGPGLLSVPNLPEISSIRRVPLPPELVEQFGHMQCNCMMGVFPPISRAWLTIDSDIFMWNYEDGGDLAYFDGLSETILAVGLVKPKAGIFQPHVRHLLVLATPVDIVILGLSYANLQTGSGVLNDSLSGGMQLLPDPLYSLPTDNTYLLTITSTDNGRIFLAGKDGCLYEVAYQAEAGWFSQRCRKINHSKSSLSFLVPSLLQFTFSEDDPILQIAIDNSRNILYTRSEKGVIQVYDLGQDGQGMSRVASVSQNAIVSAAGNIARTIDRSVFKPIVQIAVIENSESLDCQLLAVTHAGVRLYFSTCPFRQPLARPNTLTLVHVRLPPGFSASSTVEKPSKVHRALYSKGILLMAASENEDNDILWCVNHDTFPFQKPMMETQMTAGVDGHSWALSAIDELKVDKIITPLNKDHIPITDSPVVVQQHMLPPKKFVLLSAQGSLMFHKLRPVDQLRHLLVSNVGGDGEEIERFFKLHQEDQACATCLILACSTAACDREVSAWATRAFFRYGGEAQMRFPTTLPPPSNVGPILGSPVYSSSPVPSGSPYPNPSFLGTPSHGIQPPAMSTPVCALGNPATQATNMSCVTGPEIVYSGKHNGICIYFSRIMGNIWDASLVVERIFKSGNREITAIESSVPCQLLESVLQELKGLQEFLDRNSQFAGGPLGNPNTTAKVQQRLIGFMRPENGNPQQMQQELQRKFHEAQLSEKISLQAIQQLVRKSYQALALWKLLCEHQFTIIVAELQKELQEQLKITTFKDLVIRDKELTGALIASLINCYIRDNAAVDGISLHLQDICPLLYSTDDAICSKANELLQRSRQVQNKTEKERMLRESLKEYQKISNQVDLSNVCAQYRQVRFYEGVVELSLTAAEKKDPQGLGLHFYKHGEPEEDIVGLQAFQERLNSYKCITDTLQELVNQSKAAPQSPSVPKKPGPPVLSSDPNMLSNEEAGHHFEQMLKLSQRSKDELFSIALYNWLIQVDLADKLLQVASPFLEPHLVRMAKVDQNRVRYMDLLWRYYEKNRSFSNAARVLSRLADMHSTEISLQQRLEYIARAILSAKSSTAISSIAADGEFLHELEEKMEVARIQLQIQETLQRQYSHHSSVQDAVSQLDSELMDITKLYGEFADPFKLAECKLAIIHCAGYSDPILVQTLWQDIIEKELSDSVTLSSSDRMHALSLKIVLLGKIYAGTPRFFPLDFIVQFLEQQVCTLNWDVGFVIQTMNEIGVPLPRLLEVYDQLFKSRDPFWNRMKKPLHLLDCIHVLLIRYVENPSQVLNCERRRFTNLCLDAVCGYLVELQSMSSSVAVQAITGNFKSLQAKLERLH

Test system: KDM4A-I71AzF
Test: CASI: photo-crosslinking with HEK293T cell extracts, StrepTactin enrichment and LC-MS/MS proteomics;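 also: lysates from HEK293T cells pretreated with a KDM4 inhibitor to raise proteome methylation, affinity-purified after ±UV, gel-resolved, trypsin-digested, with exclusive unique peptides per protein averaged per condition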
Type: binding, human
Conditions: sheet "Final results but with 0.01"

Row | Molecule | Fold change (+UV/-UV)
1 | B1 | 0.5
2 | B2 | 0.5385
3 | B3 | 0
4 | B4 | 1.36
